Legend:
[1] = TLC analysis of hydrolysis products; format: biochemical; settings: pH 5.6, 50° C.
From the text: FIG. 7 depicts the result of thin layer chromatography TLC analysis of products of CMC hydrolyzed by endoglucanases derived from a rumial genomic DNA library. The methods used for cellulase and substrate preparation, hydrolysis, TLC, and visualization are described in Example 5. The hydrolysis products glucose, cellobiose, cellotriose are shown an the right side. […] Different pattern was found when using short-chain beta-1,4-glucans.
The products formed by hydrolysis of cellulose-based substrates (cellobiose, cellotetraose, cellopentaose, cellulose and carboxymethyl cellulose) were analysed by thin-layer chromatography (TLC). Solutions containing 20 μg of E. coli cell lysate proteins and 0.2% (wt/vol) substrate in 50 mM acetate buffer (pH 5.6) were incubated at 50° C. until maximum conversion was achieved. The reactions were terminated by heating the preparation for 5 min at 95° C. and hydrolysis products were separated by TLC on silica gel plates (Merck, Darmstadt, Germany) by using a mixture chloroform, glacial acetic acid, and water (6:14:1) as the solvent. […] Sugars were visualized by heating 105° C. for 15 min the plates which were previously sprayed with a reagent containing amine (2 ml), diphenylamine (2 g), acetone (100 ml) and 85% H3PO4 (15 ml).

[2] = Specific activity of purified endoglucanases; format: biochemical; settings: purified to homogeneity; pH 5.6 and 50° C.; CMC as substrate
Procedure: FIG. 2 represents Table 2 which contains the data obtained by purification of endoglucanases of seven clones (pBKRR.1, 9, 11, 13, 14, 16 and 22) with respect to the specific activity. […] They were purified to homogeneity and their specific activity was estimated at pH 5.6 and 50° C., using CMC as substrate.
The endoglucanases were recovered from 1-liter shaked flask fermentations, in Luria-Bertany broth plus 50 μg of Kanamycin per ml. One gram of fermentation broth was mixed with 10 ml of standard buffer in a 50-ml Falcon tube. The solution was vortexed and then incubated with DNase I grade II, for 30-45 min, and then sonicated for 4 min total time. A sample of the soluble fraction was separated from insoluble debris by centrifugation (10,000×g, 30 min, 4° C.) and proteins were precipitated by addition of 80% chilled acetone (−20° C.). Proteins were resuspended in standard buffer and stored at −20° C. at a concentration of 5 mg/ml until use. The amount of protein expression was examined using SDS-PAGE with 10-12% acrylamide. […] The gel region containing the active cellulase, detected in a parallel track by activity staining (using Ostazin brillian-blue carboxymethyl cellulose) was excised, suspended in two volumes of standard fuffer and homogenized in a glass tissue homogenizer. […]
The standard cellulase activity was determined in a continuous spectrophotometric assay by measuring the release of reducing sugars from the 4% (wt/vol carboxymethyl cellulose (CMC) in 0.5-ml reaction mixtures containing 50 mM sodium acetate buffer, pH 5.6, at 40° C., using the dinitrosalycilic acid (DNS) method (Bernfeld, P. (1955) Amilases and b. In: Colowick S P, Kaplan N O (eds). Methods in Enzymology, Academic Press, New York pp. 133-155). The reaction was performed in 0.5 ml scale containing 20 mg substrate and 5 mg lyophilised cells or 0.1 mg purified enzyme. Reactions were allow to proceed for a time period of 5-30 min after which the samples were centrifuge (10,000×g, 3 min). […] Finally, each well was diluted with 150 μl water and the absorbance at 550 nm was measured. […]

| Molecule | main hydrolysis products of CMC [1] | specific activity [2] |
| --- | --- | --- |
| pBKRR.22: rumen endo-beta-1,4-glucanase, sequences FIG. 11/19 (protein, Description of sequence sequence derived from genomic DNA library from rumen ecosystem, particularly amino acid sequence of clones pBKRR 22, 6, 8 and 23;(see Figure 19)) MLLASFSLFSCGGSDGDDSTPTPSVSLQLVSQSIAEGAQVDAASTTVLTLNYNNPVRVTGNGVTLNGIAVKAKVSGNTSVEIPLTLVEGTVYTLKVAWGAIVAAADGKVVAPEFTLNFTTKGNQQPPIDENSPIAKKMGWGWNLGNHFDTSSGADGVRPQWGYWDNAKPTQVLYNNLRNAGTSTVRIGVTWGNYQNTSNWDIDANYIAEVRQNVEWAEAAGLNVILNMHHDEYWLDIKGAANNSSTNTNIKNRIEKTWKQIAEAFKDKGEFLIFESFNEIQDGGWGWGANRTDGGKQYKTLNEWNQLVVNTIRATGGNNATRWIGIPSYAANPSLALETGFVLPTDAANRLMVSVHFYDPSNFTLSPYVSDDSSEYKSGGYSEWGHTAAKGKADTGSNEDHVVAIFKKLHDKFVAKNIPVYIGEYGCVMHKNTRSNYFRNYYLEYVCRAAHEYGMPLCIWDNNQTGGGNEHHGYFNHTDGQYLNAMESLVKTMIKAATSDDASYTLESVYNKAPK | cellobiose and cellotriose | 68.30 µmol/min/mg |
| pBKRR.14: rumen endoglucanase, sequences FIG. 16/24; also capable of hydrolyzing xylan (protein, Description of sequence sequence derived from genomic DNA library from rumen ecosystem, particularly amino acid sequence of clones pBKRR 14 and 20-1; RR14=RR20-1;(see Figure 24), also capable of hydrolyzing xylan) MINVLQHHPEVELSVDKTSVSFNRSGGEETFTVTSSTQPHVSADVSWVVVETGKIDKDHHTEVRVLAGANRKEASAGTLTVSCSDKKVSVSVKQEAFVAPSVASTTAVTPQMVFDAMGPGWNMGNHMDAISNGVSGETVWGNPKCTQATMDGVKAAGYKAVRICTTWEGHIGAAPAYALEQKWLDRVAEIVGYAEKAGLVAIVNTHHDESYWQDISKCYNNAANHEKVKDEVFSVWTQIAEKFKDKGEWLVFESFNEIQDGGWGWSDAFRKNPDAQYKVLNEWNQTFVDAVRSTGGQNATRWLGIPGYACNPGFTIAGLVLPKDYTTANRLMVAVHDYDPYDYTLKDPLIRQWGHTADADKRPSGDNEKAVVDVFNNLKAAYLDKGIPVYLGEMGCSRHTAADFPYQKYYMEYFCKAAADRLLPMYLWDNGAKGVGSERHAYIDHGTGQFVDEDARTLVGLMVKAVTTKDASYTLESVYNSAP | cellobiose and cellotriose | 34.60 µmol/min/mg |

— patent US20080261267A1, “Cellulases from Rumen” (priority 2004, published 2008)
